Experimental data taken from the supplement of paper PMC5998384.

Legend:
HeLa Kyoto [1] = test: solubility in G1/S (NP-40 vs SDS abundance) (log2 ratio); higher = more soluble; conditions: cell cycle stage: G1/S
HeLa Kyoto [2] = test: melting temperature (median over replicates), in situ; higher = more thermally stable
HeLa Kyoto [3] = test: solubility change mitosis vs G1/S (difference of NP-40 vs SDS log2 ratios) (log2 ratio difference); higher = more soluble in mitosis
HeLa Kyoto [4] = test: thermal stability score vs G1/S (z-score of summed log2 fold changes over temperatures); higher = more thermally stable than in G1/S
[5] = cell cycle stage: early G1 (4.5 h after nocodazole release)
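Throughout, for melting temperature (median over replicates), in situ: HeLa Kyoto cells synchronized by double thymidine or nocodazole block, proteins quantified by TMT10plex mass spectrometry, three independent biological replicates.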
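Throughout, for solubility change mitosis vs G1/S (difference of NP-40 vs SDS log2 ratios): synchronized HeLa Kyoto cells (double thymidine block for G1/S, nocodazole release for mitosis), protein amounts in NP-40 versus SDS lysates quantified by mass spectrometry, three biological replicates.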
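Throughout, for solubility in G1/S (NP-40 vs SDS abundance): HeLa Kyoto cells arrested at G1/S by double thymidine block, proteins quantified by TMT10plex mass spectrometry in mild NP-40 versus SDS extracts, three biological replicates.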
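Throughout, for thermal stability score vs G1/S (z-score of summed log2 fold changes over temperatures): synchronized HeLa Kyoto cells, proteins quantified by TMT10plex mass spectrometry, three biological replicates, mitosis taken 0.5 h after nocodazole release, G1/S directly after double thymidine block.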

Substance	solubility in G1/S (log2) (HeLa Kyoto [1])	melting temperature (HeLa Kyoto [2]; cell cycle stage: mitosis) [°C]	solubility change mitosis (log2) (HeLa Kyoto [3])	thermal stability score (HeLa Kyoto [4]; [5])	thermal stability score (HeLa Kyoto [4]; cell cycle stage: mitosis)	melting temperature (HeLa Kyoto [2]; cell cycle stage: G1/S) [°C]
MLGPHLPPPPLAPSEGRPTPCAFQIPDGSYRCLALEAEESSGEEGLQGEVGPTDLEEDEGVSRSGDDSACRVTQGTPQLPKALGIQPPSCSREEQGASQHDDRASQDWDVVKAGQMMTASPSPGPGPRVAQKPALGRSTSLTEKDLKEAKARSQQIAAQLTTPPSSNSRGVQLFNRRRQRVNEFTLESHGQRGQKPSQESLRVLPSSLPGHAPGLSLSSTSLPEPGPPRHPSPQSPDRGVPGHSMEGYSEEASLLRHLEKVASEEEEVPLVVYLKENAALLTANGLHLSQNREAQQSSPAPPPAEVHSPAADVNQNLASPSATLTTPTSNSSHNPPATDVNQNPPATVVPQSLPLSSIQQNSSEAQLPSNGTGPASKPSTLCADGQPQAPAEEVRCSTLLIDKVSTPATTTSTFSREATLIPSSRPPASDFMSSSLLIDIQPNTLVVSADQEMSGRAAATTPTKVYSEVHFTLAKPPSVVNRTARPFGIQAPGGTSQMERSPMLERRHFGEKAPAPQPPSLPDRSPRPQRHIMSRSPMVERRMMGQRSPASERRPLGNFTAPPTYTETLSTAPLASWVRSPPSYSVLYPSSDPKSSHLKGQAVPASKTGILEESMARRGSRKSMFTFVEKPKVTPNPDLLDLVQTADEKRRQRDQGEVGVEEEPFALGAEASNFQQEPAPRDRASPAAAEEVVPEWASCLKSPRIQAKPKPKPNQNLSEASGKGAELYARRQSRMEKYVIESSSHTPELARCPSPTMSLPSSWKYPTNAPGAFRVASRSPARTPPASLYHGYLPENGVLRPEPTKQPPYQLRPSLFVLSPIKEPAKVSPRAASPAKPSSLDLVPNLPKGALPPSPALPRPSRSSPGLYTSPGQDSLQPTAVSPPYGGDISPVSPSRAWSPRAKQAPRPSFSTRNAGIEAQVWKPSFCFK [SYNPO]	-1.65	52.8	1.62	-0.595	-3	–
MSDDAGDTLATGDKAEVTEMPNSDSLPEDAEVHCDSAAVSHEPTPADPRGEGHENAAVQGAGAAAIGPPVQPQDANALEPPLNGDVTEDTLAECIDSVSLEAEPRSEIPLQEQNYLAVDSPPSGGGWAGWGSWGKSLLSSASATVGHGLTAVKEKAGATLRIHGVNSGSSEGAQPNTENGVPEITDAATDQGPAESPPTSPSSASRGMLSAITNVVQNTGKSVLTGGLDALEFIGKKTMNVLAESDPGFKRTKTLMERTVSLSQMLREAKEKEKQRLAQQLTMERTAHYGMLFDEYQGLSHLEALEILSNESESKVQSFLASLDGEKLELLKNDLISIKDIFAAKELENEENQEEQGLEEKGEEFARMLTELLFELHVAATPDKLNKAMKRAHDWVEEDQTVVSVDVAKVSEEETKKEEKEEKSQDPQEDKKEEKKTKTIEEVYMSSIESLAEVTARCIEQLHKVAELILHGQEEEKPAQDQAKVLIKLTTAMCNEVASLSKKFTNSLTTVGSNKKAEVLNPMISSVLLEGCNSTTYIQDAFQLLLPVLQVSHIQTSCLKAQP [FAM114A1]	0.474	53.1	-0.158	0.444	0.327	52.9
MASSGEDISNDDDDMHPAAAGMADGVHLLGFSDEILLHILSHVPSTDLILNVRRTCRKLAALCLDKSLIHTVLLQKDYQASEDKVRQLVKEIGREIQQLSMAGCYWLPGSTVEHVARCRSLVKVNLSGCHLTSLRLSKMLSALQHLRSLAIDVSPGFDASQLSSECKATLSRVRELKQTLFTPSYGVVPCCTSLEKLLLYFEILDRTREGAILSGQLMVGQSNVPHYQNLRVFYARLAPGYINQEVVRLYLAVLSDRTPQNLHAFLISVPGSFAESGATKNLLDSMARNVVLDALQLPKSWLNGSSLLQHMKFNNPFYFSFSRCTLSGGHLIQQVINGGKDLRSLASLNLSGCVHCLSPDSLLRKAEDDIDSSILETLVASCCNLRHLNLSAAHHHSSEGLGRHLCQLLARLRHLRSLSLPVCSVADSAPRADRAPAQPAMHAVPRGFGKKVRVGVQSCPSPFSGQACPQPSSVFWSLLKNLPFLEHLELIGSNFSSAMPRNEPAIRNSLPPCSRAQSVGDSEVAAIGQLAFLRHLTLAQLPSVLTGSGLVNIGLQCQQLRSLSLANLGMMGKVVYMPALSDMLKHCKRLRDLRLEQPYFSANAQFFQALSQCPSLQRLCLVSRSGTLQPDAVLAFMARCLQVVMCHLFTGESLATCKSLQQSLLRSFQAERPALNVVIFPLLHEGLTDVIRDVPLVHLDEITLFKSRVAEEPPNLWW [FBXL18]	0.1	53	-0.164	-1.04	-1.17	53.4
HEATR1	-1.01	49.2	0.265	1.16	2.97	48.4
MAGAATQASLESAPRIMRLVAECSRSRARAGELWLPHGTVATPVFMPVGTQATMKGITTEQLDALGCRICLGNTYHLGLRPGPELIQKANGLHGFMNWPHNLLTDSGGFQMVSLVSLSEVTEEGVRFRSPYDGNETLLSPEKSVQIQNALGSDIIMQLDDVVSSTVTGPRVEEAMYRSIRWLDRCIAAHQRPDKQNLFAIIQGGLDADLRATCLEEMTKRDVPGFAIGGLSGGESKSQFWRMVALSTSRLPKDKPRYLMGVGYATDLVVCVALGCDMFDCVFPTRTARFGSALVPTGNLQLRKKVFEKDFGPIDPECTCPTCQKHSRAFLHALLHSDNTAALHHLTVHNIAYQLQLMSAVRTSIVEKRFPDFVRDFMGAMYGDPTLCPTWATDALASVGITLG [QTRT1]	0.174	54.9	-0.0923	1.96	0.0564	55.6
MFSLSSTVQPQVTVPLSHLINAFHTPKNTSVSLSGVSVSQNQHRDVVPEHEAPSSECMFSDFLTKLNIVSIGKGKIFEGYRSMFMEPAKRMKKSLDTTDNWHIRPEPFSLSIPPSLNLRDLGLSELKIGQIDQLVENLLPGFCKGKNISSHWHTSHVSAQSFFENKYGNLDIFSTLRSSCLYRHHSRALQSICSDLQYWPVFIQSRGFKTLKSRTRRLQSTSERLAETQNIAPSFVKGFLLRDRGSDVESLDKLMKTKNIPEAHQDAFKTGFAEGFLKAQALTQKTNDSLRRTRLILFVLLLFGIYGLLKNPFLSVRFRTTTGLDSAVDPVQMKNVTFEHVKGVEEAKQELQEVVEFLKNPQKFTILGGKLPKGILLVGPPGTGKTLLARAVAGEADVPFYYASGSEFDEMFVGVGASRIRNLFREAKANAPCVIFIDELDSVGGKRIESPMHPYSRQTINQLLAEMDGFKPNEGVIIIGATNFPEALDNALIRPGRFDMQVTVPRPDVKGRTEILKWYLNKIKFDQSVDPEIIARGTVGFSGAELENLVNQAALKAAVDGKEMVTMKELEFSKDKILMGPERRSVEIDNKNKTITAYHESGHAIIAYYTKDAMPINKATIMPRGPTLGHVSLLPENDRWNETRAQLLAQMDVSMGGRVAEELIFGTDHITTGASSDFDNATKIAKRMVTKFGMSEKLGVMTYSDTGKLSPETQSAIEQEIRILLRDSYERAKHILKTHAKEHKNLAEALLTYETLDAKEIQIVLEGKKLEVR [YME1L1]	0.0482	50.8	-0.0396	2.02	1.49	50.9
MQSKVTGNMPTQSLLMYMDGPEVIGSSLGSPMEMEDALSMKGTAVVPFRATQEKNVIQIEGYMPLDCMFCSQTFTHSEDLNKHVLMQHRPTLCEPAVLRVEAEYLSPLDKSQVRTEPPKEKNCKENEFSCEVCGQTFRVAFDVEIHMRTHKDSFTYGCNMCGRRFKEPWFLKNHMRTHNGKSGARSKLQQGLESSPATINEVVQVHAAESISSPYKICMVCGFLFPNKESLIEHRKVHTKKTAFGTSSAQTDSPQGGMPSSREDFLQLFNLRPKSHPETGKKPVRCIPQLDPFTTFQAWQLATKGKVAICQEVKESGQEGSTDNDDSSSEKELGETNKGSCAGLSQEKEKCKHSHGEAPSVDADPKLPSSKEKPTHCSECGKAFRTYHQLVLHSRVHKKDRRAGAESPTMSVDGRQPGTCSPDLAAPLDENGAVDRGEGGSEDGSEDGLPEGIHLDKNDDGGKIKHLTSSRECSYCGKFFRSNYYLNIHLRTHTGEKPYKCEFCEYAAAQKTSLRYHLERHHKEKQTDVAAEVKNDGKNQDTEDALLTADSAQTKNLKRFFDGAKDVTGSPPAKQLKEMPSVFQNVLGSAVLSPAHKDTQDFHKNAADDSADKVNKNPTPAYLDLLKKRSAVETQANNLICRTKADVTPPPDGSTTHNLEVSPKEKQTETAADCRYRPSVDCHEKPLNLSVGALHNCPAISLSKSLIPSITCPFCTFKTFYPEVLMMHQRLEHKYNPDVHKNCRNKSLLRSRRTGCPPALLGKDVPPLSSFCKPKPKSAFPAQSKSLPSAKGKQSPPGPGKAPLTSGIDSSTLAPSNLKSHRPQQNVGVQGAATRQQQSEMFPKTSVSPAPDKTKRPETKLKPLPVAPSQPTLGSSNINGSIDYPAKNDSPWAPPGRDYFCNRSASNTAAEFGEPLPKRLKSSVVALDVDQPGANYRRGYDLPKYHMVRGITSLLPQDCVYPSQALPPKPRFLSSSEVDSPNVLTVQKPYGGSGPLYTCVPAGSPASSSTLEGKRPVSYQHLSNSMAQKRNYENFIGNAHYRPNDKKT [ZNF217]	-0.201	–	0.0502	-1.13	-0.808	–
LAMA3	-0.331	–	0.0773	-0.604	-0.145	–
MTQPVPRLSVPAALALGSAALGAAFATGLFLGRRCPPWRGRREQCLLPPEDSRLWQYLLSRSMREHPALRSLRLLTLEQPQGDSMMTCEQAQLLANLARLIQAKKALDLGTFTGYSALALALALPADGRVVTCEVDAQPPELGRPLWRQAEAEHKIDLRLKPALETLDELLAAGEAGTFDVAVVDADKENCSAYYERCLQLLRPGGILAVLRVLWRGKVLQPPKGDVAAECVRNLNERIRRDVRVYISLLPLGDGLTLAFKI [COMTD1]	0.16	–	0.00811	-0.487	0.44	–
SACS	-0.294	–	-0.045	-0.0387	-0.338	–
MAPSLWKGLVGIGLFALAHAAFSAAQHRSYMRLTEKEDESLPIDIVLQTLLAFAVTCYGIVHIAGEFKDMDATSELKNKTFDTLRNHPSFYVFNHRGRVLFRPSDTANSSNQDALSSNTSLKLRKLESLRR [MMGT1]	-0.125	–	-0.109	-0.869	-1.57	–
TMEM131	-0.0423	–	-0.0264	-1.15	-1.6	–
MQRAAALVRRGCGPRTPSSWGRSQSSAAAEASAVLKVRPERSRRERILTLESMNPQVKAVEYAVRGPIVLKAGEIELELQRGIKKPFTEVIRANIGDAQAMGQQPITFLRQVMALCTYPNLLDSPSFPEDAKKRARRILQACGGNSLGSYSASQGVNCIREDVAAYITRRDGGVPADPDNIYLTTGASDGISTILKILVSGGGKSRTGVMIPIPQYPLYSAVISELDAIQVNYYLDEENCWALNVNELRRAVQEAKDHCDPKVLCIINPGNPTGQVQSRKCIEDVIHFAWEEKLFLLADEVYQDNVYSPDCRFHSFKKVLYEMGPEYSSNVELASFHSTSKGYMGECGYRGGYMEVINLHPEIKGQLVKLLSVRLCPPVSGQAAMDIVVNPPVAGEESFEQFSREKESVLGNLAKKAKLTEDLFNQVPGIHCNPLQGAMYAFPRIFIPAKAVEAAQAHQMAPDMFYCMKLLEETGICVVPGSGFGQREGTYHFRMTILPPVEKLKTVLQKVKDFHINFLEKYA [GPT2]	0.0799	–	0.017	-0.2	-0.215	–
ESPL1	-0.00542	–	-0.204	0.555	2.16	–
